Experimental findings from the DeepSol protein solubility set are described below.

The nature of the data set: soluble on expression in E. coli; label from the status in PepcDB or PDB records.
Consider “GSQSSERVVIGSKPFNEQYILANMIAILLEENGYKAEVKEGLGGTLVNYEALKRNDIQLYVEYTGTAYNVILRKQPPELWDQQYIFDEVKKGLLEADGVVVAAKLGFRDDYALAVRADWAEENGVEKISDLAEFADQLVFGSDPEFASRPDGLPQIKKVYGFEFKEVKQMEPTLMYEAIKNKQVDVIPAYTTDSRVDLFNLKILEDDKGALPPYDAIIIVNGNTAKDEKLISVLKLLEDRIDTDTMRALNYQYDVEKKDAREIAMSFLKEQGLVK”, for which the “soluble on expression in E. coli” value is on record as “soluble”. In the case of “MTAAQGNSNETLFSSYKMGRFDLSHRVVLAPMTRCRALNGVPNAALAEYYAQRTTPGGFLISEGTMVSPGSAGFPHVPGIYSDEQVEAWKQVVEAVHAKGGFIFCQLWHVGRASHAVYQPNGGSPISSTNKPISENRWRVLLPDGSHVKYPKPRALEASEIPRVVEDYCLSALNAIRAGFDGIEIHGAHGYLIDQFLKDGINDRTDQYGGSIANRCRFLKQVVEGVVSAIGASKVGVRVSPAIDHLDATDSDPLSLGLAVVGMLNKLQGVNGSKLAYLHVTQPRYHAYGQTESGRQGSDEEEAKLMKSLRMAYNGTFMSSGGFNKELGMQAVQQGDADLVSYGRLFIANPDLVSRFKIDGELNKYNRKTFYTQDPVVGYTDYPFLAPFSRL”, the “soluble on expression in E. coli” value is on record as “soluble”.

“MLIFRTSPMSRREKSLPIEPKYTKPQANGSSFPPIFTLEGSTPCKKTARKLIDPVVNSVDSLCYLARKIVKMQEEKKRQKSNSFLIDYLVGDNFITEFREQPAQASPAVDVEDPMVSLVLGCPFGAIGQERRMSQDFPFQRRSFDMVSNRTSTSESSSCSSTDNTYKNAGKFLSLQEYLEQNNLLPPSTMPFGENSGFHGYNPQMNVHNNSTRNGNVENREQRNNSTSPPRGNPPHPLCCCFCFGTASEFARLHTLPAPRKDDRGPWSDHCSKKRGRVVCPKLRSMVCGICGATGDNAHTTKHHLEAFGDD”: the “soluble on expression in E. coli” value was “not soluble”.

For “MEGEYRLTRSYAVVDITAQVDDSAILEPFACVMARARIGPRTRVGAHSVVGVGVSVGADCCIYHHVTLLNCDIGDRCVIHSGVAIGQDGFGFEVDQQTGKVRKKPQELSVRIGNEVEIGANTCIDRGSWRDTLIEDAVKIDNLVQIGHNVQVGANTFICGQAGVAGSTKIGRYCRFGGRSGAVDHLEIGDHVDVAANSVLTRNAPGHAVYAGFPAMPMREWRHQQVTLRRLSRAGKRQVDVSADDPEFPK”, the “soluble on expression in E. coli” value is “not soluble”. In the case of “MLTGCSRRELLDDYPVSGVDIKLDWNGVTDKLPEGVRVIFYPKSAEGRKIDTYLSVRGGKVKVPPGRYSVVAYNYDTETVQIRGEEAYETIEAFTGYCNGLGIAGTEKMVWGPDPLYVVQIDDLHIANSEEELLLDWKPKLVVKTYFFKIKVEGLEYVSSIVGSVEGMAGCYCLGRCCGMMCDAPIYFEAQGRSGEVTGSFTAFGMPEAAISRAGDKIKLTLAFIKVDKTVQKAEIDITEVVTNSESGGSGGGNVDEPPTEIELPLDEKVKVEKPTTNPDGGGGGIGGDVGDWGDEDEVVLPVE” it was “not soluble”; in that of “GSHMKISARNVFKGTVSALKEGAVNAEVDILLGGGDKLAAVVTLESARSLQLAAGKEVVAVVKAPWVLLMTDSSGYRLSARNILTGTVKTIETGAVNAEVTLALQGGTEITSMVTKEAVAELGLKPGASASAVIKASNVILGVPA”, “soluble”; in that of “MCNTPTYCDLGKAAKDVFNKGYGFGMVKIDLKTKSCSGVEFSTSGHAYTDTGKASGNLETKYKVCNYGLTFTQKWNTDNTLGTEISWENKLAEGLKLTLDTIFVPNTGKKSGKLKASYKRDCFSVGSNVDIDFSGPTIYGWAVLAFEGWLAGYQMSFDTAKSKLSQNNFALGYKAADFQLHTHVNDGTEFGGSIYQKVNEKIETSINLAWTAGSNNTRFGIAAKYMLDCRTSLSAKVNNASLIGLGYTQTLRPGVKLTLSALIDGKNFSAGGHKVGLGFELEALEHHHHHH”, “soluble”.

For “MANHKPEIVITYCTQCQWLLRAAWLAQELLSTFADDLGRVALEPGTGGIFRITCNGVQIWERKADGGFPEAKVLKQRVRDQVDPQRDLGHNDRLEHHHHHH”, the “soluble on expression in E. coli” value is given as “soluble”. With “GPGSMASKKQADGSKDIGDAAWREKLTTQEYRVLRQKATDPPFGAYNTHFETGTYHCAGCGTLLYKSSMKFPCECGWPAFFDCVPLAVREEPDSDGVRTEILCNACGGHLGHVFRGEGFNNPPPNERHCVNGTAIRFQSEK”, the “soluble on expression in E. coli” value was “soluble”. “MSLETELPQAQDGSVRLLQITDTHLFASAEGRLLAVRTAESLAAVLERVQANDHPFDLILATGDLSQDHSPESYQRFASMMAPLARPIYWLPGNHDDGPLMTEYLHAAGISEAKQLVGEHWQVILLDTQVRGKPHGVLGDHQLAALDQALRQHPERHALIALHHQAVPVGCAWLDQHNLKPTTLFAVLARHPQQKTILFGHVHQEFDETAGMRLIASPSTCIQFKPLSDGLRAGREGHHHHHH”: the “soluble on expression in E. coli” value is on record as “not soluble”. As to “QYAPQTQSGRTSIVHLFEWRWVDIALECERYLGPKGFGGVQVSPPNENIVVTNPSRPWWERYQPVSYKLCTRSGNENEFRDMVTRCNNVGVRIYVDAVINHMCGSGAAAGTGTTCGSYCNPGSREFPAVPYSAWDFNDGKCKTASGGIESYNDPYQVRDCQLVGLLDLALEKDYVRSMIADYLNKLIDIGVAGFRIDASKHMWPGDIKAVLDKLHNLNTNWFPAGSRPFIFQEVIDLGGEAIKSSEYFGNGRVTEFKYGAKLGTVVRKWSGEKMSYLKNWGEGWGFMPSDRALVFVDNHDNQRGHGAGGSSILTFWDARLYKIAVGFMLAHPYGFTRVMSSYRWARNFVNGEDVNDWIGPPNNNGVIKEVTINADTTCGNDWVCEHRWREIRNMVWFRNVVDGQPFANWWDNGSNQVAFGRGNRGFIVFNNDDWQLSSTLQTGLPGGTYCDVISGDKVGNSCTGIKVYVSSDGTAQFSISNSAEDPFIAIHAESKL”, the “soluble on expression in E. coli” value is reported as “soluble”. In the case of “MGSDKIHHHHHHMIKILLLIDYSSEFDRKLLRGLVQYSKENGPWLFYRLPSYYSGMYGEKGILKWAKEWKADAIIGQWNNDTVNLLKELNIPIVLQNYHHRSTTYSNLTGDYKGTGRMAAQFFAKRMFHNFAYFGINGVVWSDERCEGFRQEVKRIGGNFYCFESDKHEDEIRIEVSQWLQELPKPIALFCCDDSHALFISETCKISNIHIPEEISLLGVDNDDLICNISDPPISSIELEVERGGYSIGRLIHQQIKKEHEGTFNIVINPIRIELRQSTEKHNIKDPYILEVVKYIESHYNSDLTIESLLAQIPLSRRNFEVKFKNAMHTSIYQYILNCRVNHLADLLLTTDRSLADIATEAGFKDYNNISRIFKKFKGCSPLEYREKKITNR” it was “not soluble”.

For the sequence “MRGFLFSMAQHFSLSAEARHLSIQVDELSDVEILSLLKTARWGNADNINDIECPHCHVRHEAYFIKTRQQWQCKHCCYRFSITAGTIFHLAKLSLRKILKALRYFALKSKGLSAIELSHEINVQYKTAWGLRHKFREALDKTKDLTPLKDEVHIDGAYTNYYIRPKNFRHKRIDRRKKRYQREDKSCVLVFRQRAANQAQMKGADRSIVALIKEENTQDVLDLTQRLVKQGSTIHTDENPAYDSLQFLYDLWRVNHSQEYCSIEGITNNLAESFFARFRRMIIGVHHKMANRYMLYYANEIAWREDNRLKTDREKLNDVLQRCIKTKPSRHFTGYWQGSKKSPETFGLESINASNDSHYLIAALEHHHHHH”, the “soluble on expression in E. coli” value was “not soluble”. In the case of “MKTMRKILEIDEERCNGCGLCVLDCAEGAIAIVDGKAKIVSDSFCDGLGACIGSCPQDALHIIEREAVPFDEEAAMEHVRSQGGTPEANHGHGHGAGTPHRHGQSAEHGGHGRIPGHGGCPGAAMRRFDSAESPAFAVAEGTVKGPGHWPLKIRLVPPTAPFLKGADVLVAADCAAAASPIFHSHFAAGKVVLIGCPKFDDTEAYAERLADILRVSGIASLTVLRMEVPCCRGLSAAAEKARVLSGTSLVLKEVIMTCAGGPAAPAPLSSL”, the “soluble on expression in E. coli” value is “soluble”.

“MTIIAGLPVEYNDRFIRGIAVFAPWRKTPGNYHQSHGACLGRRSRTITVVDEQPQGMDMDPTCSLFTTGQCLGEPDLLASARRLQFFSHQYSIAVLMANARGNSALWDEYGRLIVRADRGSLLLVGQRSSQGWQGDIIPLR”: the “soluble on expression in E. coli” value was “not soluble”. In the case of “MSLEAILPVPEEKQVDWQKMETYAFVHFGLNTFNDREWGYGDSEPKTFNPTKLDCEQWVKTFVESGMKGVILTAKHHDGFCLWPTQLTEYCIRNTPYKDGKGDIVGELAAACKKYGIKFAVYLSPWDRHQANYGTPEYVDYFHKQLTELMTNYGEVFEVWFDGANGGDGWYGGAKDSRTIDRKTYYNYPRIYEILDKLQPQAIVFSDGGPGCRWVGNENGFAGATNWSFLRAGEVYPGYPKYRELQYGHADGNQWVPAECDVSIRPGWFYHPEEDDRVKTVEQLTDLYYRSVGHNATLLLNFPVDRDGLIHPIDSANAVNFHKNVQKQLAHNLLAGIRPKASDERGGQFSAKAATDESWDTYWATNDGVTAADIEFDFPKTEKVNRMMIQEYIPLGQRVKSFIVEYDKDGKWLPVKLNEETTTVGYKRLLRFETVSTDKLRIRFTDARACLCINNIEAYYAGETADTFTVEAKELKSYPFTLVGVPEEETKKCMDKDKNTTAFVEGDALVIDLGEERTITSFHYLPDQSEYNKGLISSYELSVGTEANAVNRIVAQGEFSNIKNNPILQSVYFTPVKARYLSLKPTKMVTEGETMGFAEIGIQEGHHHHHH”, the “soluble on expression in E. coli” value is on record as “soluble”. Consider “MGSDKIHHHHHHDAPLEQALTLAGDNRKELQQVLGHYEGDSLKHKAACFLIENMIGKGTIRYLLRESDSCYIQQEPEPDLTCITADYLIENIDLAFEVWQKYPWCKQLSFREFCRNILPYRLKQEPLDRWRSYYYTRYKMTVDSLARAGATMREIVFFFNSQHGKKYLHDAAKIPGDFSIELIEKLGGGTCDHLALNAVQLMRAVGIPLNLDILPYHGKVNGGHAYNSFTDENGKFFYFSPYEREPERNQWIAPLVQRVCYERQPEPKIGRNRWNTQLVNRLLKEVTDEYYLSDSVRLPVHTSDTVAYIATFNRGAFKVVSQGRVESNSVLHRVLPYGLLYFQMADKKGKLVPTGNPFVMTPDSIHFITPIRQTTVLNGILTYDVKRVLELGYEAYTLYYWKDGWQPVKEVTSKDSRTLDFGEVPVRSLFLVCGNTYMGRMQRPFLLEDGKPVYY”, for which the “soluble on expression in E. coli” value is recorded as “not soluble”. Consider “AIADNGDWGYMMTDPVTLNVGGHLYTTSLTTLTRYPDSMLGAMFGGDFPTARDPQGNYFIDRDGPLFRYVLNFLRTSELTLPLDFKEFDLLRKEADFYQIEPLIQCLNDPKPLYPMDTFEEVVELSSTRKLSKYSNPVAVIITQLTITTKVHSLLEGISNYFTKWNKHMMDTRDCQVSFTFGPCDYHQEVSLRVHLMEYITKQGFTIRNTRVHHMSERANENTVEHNWTFCRLARKTDD”, for which the “soluble on expression in E. coli” value is on record as “soluble”. Regarding “MRIEVVNVSHIFHRGTPLEKKALENVSLVINEGECLLVAGNTGSGKSTLLQIVAGLIEPTSGDVLYDGERKKGYEIRRNIGIAFQYPEDQFFAERVFDEVAFAVKNFYPDRDPVPLVKKAMEFVGLDFDSFKDRVPFFLSGGEKRRVAIASVIVHEPDILILDEPLVGLDREGKTDLLRIVEKWKTLGKTVILISHDIETVINHVDRVVVLEKGKKVFDGTRMEFLEKYDPRFFTSKMLVMRRLVLKGEDPFSMSDDELLERVCNS”, the “soluble on expression in E. coli” value is on record as “soluble”. For the sequence “MGINVQFRPMTIHDIDEVVQVERASFTSPWSRESFYNELMYNRYAKYIVMVYNGRIIGYGGMWLVIDEAHVTNVAVLPQFRGQKLGEALMRRLMDMARQHGAATMTLEVRVSNHVAQSLYRKLGFRNGGIRKRYYPDNFEDALVMWVKLR”, the “soluble on expression in E. coli” value is “not soluble”.
